Measured values as given in patent US20240409639A1 (CELLDEX THERAPEUTICS, published 2024).

Columns and labels:
[1] = target: T1, recombinant human PD-1-msFc (human, UniProt Q15116 25-167, limits assumed); assay: ELISA, plate coated with recombinant human PD-1-msFc
T1 construct: not shown: mouse Fc ('msFc')
Protocol: Microtiter plates were coated with recombinant human PD-1-msFc in PBS, and then blocked with 5% bovine serum albumin in PBS. […] The plates were washed with PBS/Tween and then incubated with a goat-anti-human IgG Fc-specific polyclonal reagent conjugated to horseradish peroxidase at 37° C. After washing, the plates were developed with HRP substrate, and analyzed at OD 450 using a microtiter plate reader.

[2] = target: T2, human PD-1 expressed on cells (human, UniProt Q15116 25-288); assay: flow cytometry on HEK293 cells expressing human PD-1
T2 construct: whole, on cells; also called HEK293 cells expressing human PD-1; PD1 Effector cells
T2 sequence (Q15116 25-288): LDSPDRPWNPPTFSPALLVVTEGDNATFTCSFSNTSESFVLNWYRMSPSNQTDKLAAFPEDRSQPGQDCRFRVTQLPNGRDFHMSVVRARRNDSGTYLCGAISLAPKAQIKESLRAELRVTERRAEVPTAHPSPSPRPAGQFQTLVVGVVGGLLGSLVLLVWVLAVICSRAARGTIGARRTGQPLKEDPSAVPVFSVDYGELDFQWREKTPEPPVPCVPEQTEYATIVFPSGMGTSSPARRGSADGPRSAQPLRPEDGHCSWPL
Protocol: After 20 minutes, the cells were washed with PBS containing 0.1% BSA and 0.05% NaN₃ (PBA) and the bound antibodies were detected by incubating the cells with a PE labeled goat anti-human IgG Fc-specific probe. The excess probe was washed from the cells with PBA and the cell associated fluorescence was determined by analysis using a FACSCanto II™ instrument (BD Biosciences, NJ, USA) according to the manufacturer's directions.

T1 sequence (Q15116 25-167 limits assumed): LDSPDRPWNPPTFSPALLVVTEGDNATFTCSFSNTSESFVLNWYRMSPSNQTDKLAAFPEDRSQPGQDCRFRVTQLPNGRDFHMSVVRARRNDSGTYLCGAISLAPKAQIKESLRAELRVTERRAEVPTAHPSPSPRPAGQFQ

B1: bispecific construct CDX-585 (bispecific antibody, human IgG1, kappa)
heavy: QVQLVQSGAEVVKPGASVKISCKASGYTFTDYVMHWVRQAPGQSLEWMGVISTYHIPAVYNQKFKGKATMTVDTSTSTVYLELSSLRSEDTAVYYCAREVYGESYYFDVWGQGTTVTVSSASTKGPSVFPLAPSSKSTSGGTAALGCLVKDYFPEPVTVSWNSGALTSGVHTFPAVLQSSGLYSLSSVVTVPSSSLGTQTYICNVNHKPSNTKVDKKVEPKSCDKTHTCPPCPAPEAQGGPSVFLFPPKPKDTLYITREPEVTCVVVDVSHEDPEVKFNWYVDGVEVHNAKTKPREEQYNSTYRVVSVLTVLHQDWLNGKEYKCQVSNKALPAPIEKTISKAKGQPREPQVYTLPPSRDELTKNQVSLTCLVKGFYPSDIAVEWESNGQPENNYKTTPPVLDSDGSFFLYSKLTVDKSRWQQGNVFSCSVMHEALHNHYTQKSLSLSPGKGSSGGGGSDIQMTQSPSSLSASVGDRVTITCRASENIYSYLAWYQQKPGKAPKFLVYNADTLAEGVPSRFSGSGSGTDFTLTISSLQPEDFATYYCQHHYGTPFTFGCGTKLEIKGGGGSGGGGSGGGGSGGGGSQVQLVQSGAEVKKPGASVKVSCKASGYSFTGYTMHWVRQAPGQCLEWMGLINPYTGGTDYNQKFQGRVTMTVDRSTSTAYMELSSLRSEDTAVYYCARERPGGSQFIYYYALDYWGQGTTVTVSS
light: DIVMTQTPLSLPVTPGEPASISCRSSQSIVHSAGNTYLEWYLQKPGQSPQLLIYKVSNRFSGVPDRFSGSGSGTDFTLKISRVEAEDVGVYYCFQGSHVPYTFGGGTKVEIKRTVAAPSVFIFPPSDEQLKSGTASVVCLLNNFYPREAKVQWKVDNALQSGNSQESVTEQDSKDSTYSLSSTLTLSKADYEKHKVYACEVTHQGLSSPVTKSFNRGEC
notes: Tetravalent format, bivalent for each target; The Fc carries L234A, L235Q, K322Q (AQQ) and M252Y, S254T, T256 (YTE); The scFv is stabilised by a disulfide from Gly to Cys at positions 558 and 629 of the mature heavy chain; also called E1A9-7B1; bsAb
Question: Does B1 bind [1]?
Answer: Result: binds

Question: Does B1 bind [2]?
Answer: Result: binds
